From PMC3466273

Biological target: His1 (position 1, -----HTASDA)
Assay: potentiometry
Conditions: not stated (electrode with a thermo-compensating apparatus); not stated (no added salt; distilled water with about 1 mM HCl/NaOH); none (distilled water acidified with 1 mM HCl, titrated with 1 mM NaOH); free peptide, 0.27 mM, 5 mL, in water

B1: Pa-MAP (multifunctional alanine-rich peptide analogue based on the HPLC-8 type I antifreeze peptide motif) (synthetic; derived from Pleuronectes americanus … (peptide)
chain: HTASDAAAAAALTAANAAAAAAASMA
  pKa: 6.0
